Experimental data reported in paper PMC10784507, “Disordered-to-ordered transitions in assembly factors allow the complex II catalytic subunit to switch binding partners” (Nature Communications, 2024).

Legend:
[1] = molecular target: T1, holo-SDHA-SDHAF2 complex (preformed from purified proteins) (human, UniProt P31040 43-664; Q9NX18 37-166, covalently attached FAD (residue not stated)); test: pull-down; preformed holo-SDHA-SDHAF2 (2 µM, His6 on SDHA) incubated with SDHAF4 or its variants, with or without 5 mM fumarate, 30 min 25 °C, then held on Ni-NTA agarose; SDS-PAGE with Coomassie, western blot for the truncated variants; conditions: both partners purified
T1 construct: human SDHAF2, mature, residues 37-166; also called holo-SDHA-AF2; SDHA-AF2 complex; source: E. coli BL21(DE3) proteins, purified; not shown: His6, N-terminal, kept; His6, N-terminal, cleaved
T1 sequence (P31040 43-664, one chain of several): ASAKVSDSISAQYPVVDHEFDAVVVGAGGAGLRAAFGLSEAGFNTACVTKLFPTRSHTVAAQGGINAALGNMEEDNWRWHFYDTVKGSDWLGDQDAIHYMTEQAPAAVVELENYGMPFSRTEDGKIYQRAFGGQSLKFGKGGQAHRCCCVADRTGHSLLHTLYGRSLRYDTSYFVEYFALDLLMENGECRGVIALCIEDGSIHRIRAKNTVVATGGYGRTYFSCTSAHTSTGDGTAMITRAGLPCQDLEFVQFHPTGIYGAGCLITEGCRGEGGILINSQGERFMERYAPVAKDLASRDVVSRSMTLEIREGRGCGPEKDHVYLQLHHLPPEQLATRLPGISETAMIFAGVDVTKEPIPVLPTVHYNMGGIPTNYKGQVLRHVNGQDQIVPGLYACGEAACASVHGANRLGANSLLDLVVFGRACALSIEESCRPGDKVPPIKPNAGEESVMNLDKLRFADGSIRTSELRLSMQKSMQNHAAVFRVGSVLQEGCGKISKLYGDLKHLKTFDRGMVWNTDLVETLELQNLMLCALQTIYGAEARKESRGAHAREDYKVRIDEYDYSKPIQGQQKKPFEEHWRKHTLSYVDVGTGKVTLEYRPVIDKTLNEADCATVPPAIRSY

[2] = molecular target: T2, His6-apo-SDHA (human, UniProt P31040 43-664); test: pull-down; Ni-NTA pull-down, pairwise; His6-apo-SDHA (2.6 µM) with SDHAF2 (6.4 µM) or FLAG-SDHAF4 (8 µM), no FAD; 40 mM HEPES pH 7.5, 0.5 mM DTT, 30 min 25 °C; SDS-PAGE, Coomassie; conditions: both partners purified
T2 construct: the same molecule with 75 µM FAD added is the form with non-covalent FAD; also called His-SDHA; not shown: His6, N-terminal, kept
T2 sequence (P31040 43-664): as the sequence (P31040 43-664, one chain of several) above

[3] = molecular target: T3, holo-SDHA with covalently attached FAD (human, UniProt P31040 43-664, covalently attached FAD (residue not stated)); test: pull-down; preformed holo-SDHA-SDHAF2 (2 µM, His6 on SDHA) incubated with SDHAF4 or its variants, with or without 5 mM fumarate, 30 min 25 °C, then held on Ni-NTA agarose; SDS-PAGE with Coomassie, western blot for the truncated variants; conditions: both partners purified
T3 construct: also called SDHA with covalent FAD; His6-SDHA; source: E. coli BL21(DE3), purified; covalent FAD formed in vitro (apo-SDHA with SDHAF2, FAD and fumarate) or by co-expression with SDHAF2; not shown: His6, N-terminal, kept
T3 sequence (P31040 43-664): as the sequence (P31040 43-664, one chain of several) above

[4] = molecular target: the molecule itself; test: native gel or EMSA; purified His6-SDHAF4^30-108, dilution series from 5 mg/ml, on 10% native and 10% SDS gels
[5] = molecular target: T4, Human SDHA-AF2 complex (co-expressed, purified) (human, UniProt P31040 43-664; Q9NX18 37-166, covalently attached FAD (residue not stated)); test: crystal structure; SDHA-AF2-AF4: holo-SDHA-SDHAF2 with His6-SDHAF4, 5 h at 4 °C, SEC; crystals in 0.2 M ammonium citrate tribasic pH 8.0, 20% PEG 3,350, 1 mM DTT, 25 °C; conditions: both partners purified
T4 construct: human SDHAF2, mature, residues 37-166; also called holo-SDHA-SDHAF2 complex; holo-SDHA-AF2; not shown: His6, N-terminal, kept
T4 sequence (P31040 43-664, one chain of several): as above

[6] = molecular target: T3, holo-SDHA with covalently attached FAD; test: as above; conditions: both partners purified

| Binder | percent of SDHAF2 displaced from the SDHA-AF2 complex [1] | binding result [1] | other results |
| --- | --- | --- | --- |
| SDHAF4^56-108 (domain or fragment, human SDHAF4, residues 56-108; also called truncated FLAG-SDHAF4 variant) not shown | ~50% |  |  |
| SDHAF4^67-108 (domain or fragment, human SDHAF4, residues 67-108; also called truncated FLAG-SDHAF4 variant) not shown | ~50% |  |  |
| SDHAF4^77-108 (domain or fragment, human SDHAF4, residues 77-108; also called truncated FLAG-SDHAF4 variant) not shown | ~50% |  |  |
| SDHAF2 (residues 37-166, His6 tag removed with TEV protease) (natural protein, human, UniProt Q9NX18 37-166, looked up, human SDHAF2, mature, residues 37-166; source: E. coli BL21(DE3), purified; His6 tag removed with TEV protease; not shown: His6, N-terminal, cleaved) GDSPTDSQKDMIEIPLPPWQERTDESIETKRARLLYESRKRGMLENCILLSLFAKEHLQHMTEKQLNLYDRLINEPSNDWDIYYWATEAKPAPEIFENEVMALLRDFAKNKNKEQRLRAPDLEYLFEKPR |  |  | binding result [2]: binds; binding result [3]: binds |
| FLAG-SDHAF4 (mature, residues 20-108) (natural protein, human, UniProt Q5VUM1 20-108, looked up, human SDHAF4, mature protein, residues 20-108, codon-optimised synthetic gene in pST50Trc3-FLAG; also called full-length SDHAF4; wild-type SDHAF4; source: E. coli BL21(DE3), purified (DEAE-Sepharose, filtration)) AARSPLLCHSLRKTSSSQGGKSELVKQSLKKPKLPEGRFDAPEDSHLEKEPLEKFPDDVNPVTKEKGGPRGPEPTRYGDWERKGRCIDF | ~80% |  |  |
| SDHAF4^D107A (natural protein, human, UniProt Q5VUM1 30-108, looked up, human SDHAF4, residues 30-108, made by modification of the pQT-SDHAF4 parent vector; The pQT vector adds a TEV-cleavable His tag; source: E. coli BL21(DE3), purified) LRKTSSSQGGKSELVKQSLKKPKLPEGRFDAPEDSHLEKEPLEKFPDDVNPVTKEKGGPRGPEPTRYGDWERKGRCIAF |  | binds |  |
| His6-SDHAF4^30-108 (natural protein, human, UniProt Q5VUM1 30-108, looked up, human SDHAF4, residues 30-108, in the pQT vector (pQT-SDHAF4); also called His-SDHAF4; purified SDHAF4; source: E. coli BL21(DE3), purified (Ni-NTA, SEC); not shown: His6, N-terminal, kept) LRKTSSSQGGKSELVKQSLKKPKLPEGRFDAPEDSHLEKEPLEKFPDDVNPVTKEKGGPRGPEPTRYGDWERKGRCIDF |  |  | binding result [4]: binds; binding result [5]: binds; binding result [6]: binds |
| SDHAF4^D107T (natural protein, human SDHAF4, residues 30-108, made by modification of the pQT-SDHAF4 parent vector; The pQT vector adds a TEV-cleavable His tag; source: E. coli BL21(DE3), purified) not shown |  | binds |  |
| SDHAF4^F108A (natural protein, human, UniProt Q5VUM1 30-108, looked up, human SDHAF4, residues 30-108, made by modification of the pQT-SDHAF4 parent vector; The pQT vector adds a TEV-cleavable His tag; source: E. coli BL21(DE3), purified) LRKTSSSQGGKSELVKQSLKKPKLPEGRFDAPEDSHLEKEPLEKFPDDVNPVTKEKGGPRGPEPTRYGDWERKGRCIDA |  | binds |  |
| SDHAF4^D107N (natural protein, human, UniProt Q5VUM1 30-108, looked up, human SDHAF4, residues 30-108, made by modification of the pQT-SDHAF4 parent vector; The pQT vector adds a TEV-cleavable His tag; source: E. coli BL21(DE3), purified) LRKTSSSQGGKSELVKQSLKKPKLPEGRFDAPEDSHLEKEPLEKFPDDVNPVTKEKGGPRGPEPTRYGDWERKGRCINF |  | binds |  |
| SDHAF4^ΔF108 (natural protein, human, UniProt Q5VUM1 30-108, looked up, human SDHAF4, residues 30-108 without the C-terminal F108, made by modification of the pQT-SDHAF4 parent vector; The pQT vector adds a TEV-cleavable His tag; source: E. coli BL21(DE3), purified) LRKTSSSQGGKSELVKQSLKKPKLPEGRFDAPEDSHLEKEPLEKFPDDVNPVTKEKGGPRGPEPTRYGDWERKGRCID |  | binds |  |
